Molecular target: T1, MS2 bacteriophage coat protein (bacteriophage MS2), P03612
T1 chain: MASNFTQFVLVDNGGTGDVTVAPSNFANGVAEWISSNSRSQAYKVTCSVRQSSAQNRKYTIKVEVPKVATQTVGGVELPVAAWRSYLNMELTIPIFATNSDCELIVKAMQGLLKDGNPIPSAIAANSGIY
Assay: SDS-PAGE with Western blot; 12.5% acrylamide gel, polyclonal anti-MS2 coat protein antibody; BL21(DE3) bacterial lysate; bands of 14 and 28 kDa
Conditions: remark: other sources report otherwise

B1: MS2 bacteriophage coat protein, P03612 1-130 (natural protein)
chain: MASNFTQFVLVDNGGTGDVTVAPSNFANGVAEWISSNSRSQAYKVTCSVRQSSAQNRKYTIKVEVPKVATQTVGGVELPVAAWRSYLNMELTIPIFATNSDCELIVKAMQGLLKDGNPIPSAIAANSGIY
stoichiometry N: 2

Reference: paper PMC8494748
